The source of these data is article PMC11488661 (Science immunology, 2024).

B1: g28v2-D38-4_CLK09 (antibody, V domains shown)
VH: QVQLVQSGAEVKKPGASVKVSCKASGYTFTDYFLHWVRQAPGQGLEWMGWINPTGGGVNYAQQFQGRVTLTRDTSISTAYMELTRLRSDDTAVYYCTPVLATFRWRFDYWGQGTLVTVSS
VL: DIQMTQSPSSLSASVGDRVTITCQASQDISNYLNWYQQKPGKAPKLLIYDVSNLGTGVPSRFSGSGSGTDFTFTISSLQPEDIATYYCQQYEFFGGGTKVEIK
B2: g28v2-D46-6_CLK09 (antibody, V domains shown)
VH: QVQLVQSGAEVKKPGASVKVSCKASGYTFTDYYMHWVRQAPGQGPEWMGWLNPNNGGRNFARKFQDRVTVTRDTSLSTAYMELSRLRSDDTAVYYCARVGEKWTFDIWGQGTMVTVSS
VL: B1 VL with D17G, G55E
B3: g28v2-D46-8_CLK09 (antibody, V domains shown)
VH: QVQLVQSGAEVKKPGASVRVSCKASGYTFTDYYMHWVRQAPGQGLEWMGWINPNNGGINYAHKFQGRVTMTRDTSISTAYMELSRLRSDDTAVYYCTTALAGHGWRFDYWGQGTLVTVSS
VL: B1 VL with D17G, D28G, N31T, G55E, I83F
B4: g28v2-D58-1_CLK09 (antibody, V domains shown)
VH: QIQLVQSGAEVKKPGASVKVSCKASGYTFTDYFIHWVRQAPGQDLVWMGWINPIYGGTNYARSFQGRVTMTRDTSISTAFLELNRLRSDDTAVYYCATDLADNRWRFDYWGQGTLVTVSS
VL: B1 VL with S30T, N31S, Y32F, V51A, G55E
B5: g28-D78-9_CLK09 (antibody, V domains shown)
VH: QVQLVQSGAEVKKPGASVRVSCKASGYTFTGNYIHWVRQAPGQGLEWMGWLNPINGGTNHAQKFQGRVTMTRDTSISTAYMELSRLRSDDTTVYYCARVGGLWSGKGWTFDIWGQGTMVTVSS
VL: DIQMTQSPSSLSASVGDRVTITCQASQDISILNWYQQKPGKAPKLLIYGASNLETGVPSRFSGSGSGTDFTFTISSLQPEDIATYYCQQYEFFGGGTKVEIK
B6: g28v2-D38-1_CLK19 (antibody, V domains shown)
VH: QVQLVQSGAEVKKPGASVKVSCKASGYTFTGHHMHWVRQAPGQGLEWLGWINPRGGGTNYAQKFQGRVTMTRDTSISTAYMDLSRLRSDDTAVYYCTPVLATFRWRFDYWGQGTLVTVSS
VL: DIQMTQSPSSLSASVGDRVTFTCQASQDISNFLNWYQQKPGKAPKLLIYDTSNLEAGVPSRFSGGGSGTDFTFTISSLQPEDVATYYCQQYATFGPGTKVDIK
B7: g28v2-D38-11_CLK19 (antibody, V domains shown)
VH: QVQLVQSGAEVKKPGASVKVSCKASGYTFTGYYMHWVRQAPGQGLEWMGWINPNSGGTNYAQIFQDRVTMTRDTSISTAYLELSRLRSDDTAVYYCTRVDGVWSFDIWGQGTMVTVSS
VL: B1 VL with D1N, L46I, V51A, G55E, E92D, F93T, G96P, E101D
B8: g28v2-D38-2_CLK19 (antibody, V domains shown)
VH: QVQLVQSGAEVKKPGASVKVSCKASGYTFTDYYLHWVRQAPGQGLEWMGWINPIFGAPNYARKFQGRVTMTRDTSISTAYMELSRLNSDDTAVYYCTHVLATYRWRFDHWGQGTLVTVSS
VL: B6 VL with S30G, E55G, G65S, V83I
B9: g28v2-D46-12_CLK19 (antibody, V domains shown)
VH: QVQLVQSGAEVKKPGASVKVSCKASGYTFTGYFMHWVRQAPGQGLEWMGWINPNTGGVNYSQKFQGRVTMTRDTSITTAYMELSSLRSDDTAVYFCVTALAGHGWRFDYWGQGTLVTVSS
VL: B1 VL with I29T, V51A, G55E, S77G, F93T, G96P, E101D
B10: g28v2-D38-5_CLK19 (antibody, V domains shown)
VH: QVQLVQSGAEVKKPGASVKVSCKASGYTFIDYYIHWVRQAPGQGLEWMGWINPYHGGTNCAQKFQDRVTMTRDTSISTAYLEMSRLRSDDTAVFFCVIALAGHGWRFDYWGQGTQVTVSS
VL: B6 VL with F21I, S30N, F32Y, A56T, G65S, V83I, T93A
B11: g28v2-D46-2_CLK19 (antibody, V domains shown)
VH: QVQLLQSGDEVKKPGASVRVSCKASGYTFTAYFLHWVRQAPGQGLEWMGWINPHSGGTNYAQRFQDRVTMTRDTSISTAYMELSRLRSDDTAVYYCTPVLADYRWRFAYWGQGTLVTVSS
VL: B6 VL with F21I, S30N, F32Y, S52T, A56I, G65S, V83F, T93A
B12: g28v2-D38-9_CLK19 (antibody, V domains shown)
VH: QVQLVQSGAEVKKPGASVKVSCKASGYTFTVYYMHWVRQAPGQGLEWMGWINPNSGGTNYPQKFQGRVTMTRDTSISTAYMELSRLRSDDTAVYYCALWFGEKKTFDIWGQGTMVTVSS
VL: B6 VL with F21I, S30G, F32Y, A56T, T69P, S77T, V83I, A84G, A92D
B13: g28v2-D58-10_CLK19 (antibody, V domains shown)
VH: B6 VH with G31D, H32Y, L48M
VL: not shown
B14: g28v2-D46-10_CLK19 (antibody, V domains shown)
VH: B3 VH with K13R, D31G, N55R, I58V, E82D, Y94F
VL: B1 VL with D1N, I29T, V51A, G55E, S77G, F93T, G96P, E101D
B15: g28v2-D46-11_CLK19 (antibody, V domains shown)
VH: B3 VH with N54H, N55S, I58V
VL: B1 VL with I29T, Q38L, V51A, G55E, S77G, F93T, G96P, E101D
B16: g28v2-D46-3_CLK19 (antibody, V domains shown)
VH: QVQLVQSGAEVKKPGAAVKVSCKASGYTFTDYYMHWVRQAPGQGLEWMGWINPRYGGTNYAQKFQDRVTMTRDTSISTTYMELRRLKSDETAVYYCTTVMADYRWPFDYWGQGTLVTVSS
VL: B1 VL with T22S, S30N, Y32C, V51T, A84G, E92D, F93T, G96P, E101D
B17: g28v2-D46-13_CLK19 (antibody, V domains shown)
VH: QVQLVQSGAEVKKPGASVKVSCKASGYTFTGNYMHWVRQAPGQGLEWMGWINPNSGGTNYAQKFQGRVTMTRDTSISTAHMELRSLRSDDTAVYYCARVEGSWFGKKWTFDIWGQGTMVTVSS
VL: B6 VL with D1A, F21I, S30T, F32Y, T51A, G65S, S77G, V83I, Y87S, A92E
B18: g28v2-D38-6_CLK19 (antibody, V domains shown)
VH: QVQLVQSGAEVREPGASVKVSCKASGYTFTGYYMHWVRQAPGQGLEWMGWINPNRGGTNLARKLQDRVTMTRDTSLSTAYMELRRLRTDDTAVYYCARVGEKWTFDIWGQGTMVTVSS
VL: B6 VL with I2L, F21I, S30N, F32Y, K42R, A56T, G65S, V83I, T93A
B19: g28v2-D46-1_CLK19 (antibody, V domains shown)
VH: QVQLVQSGAEVKKPGAAVKVSCKASGYTFTGYYIHWVRQAPGQGLEWMGWVNPKTGATNYAQKFQGRVTMTRDTSISTTYMELRRLRSDETAVYFCATVMADFRWPFDYWGQGTLVTVSS
VL: B1 VL with S30N, V51T, T56I, A84G, E92D, F93T, G96P, E101D
B20: g28v2-D46-5_CLK19 (antibody, V domains shown)
VH: B11 VH with F33Y, I51L, N52Y, H54Q, D66G, Y80F, T97A
VL: B6 VL with F21I, S30N, F32Y, S52T, A56I, G65S, V83I, T93A
B21: g28v2-D46-7_CLK09 (antibody, V domains shown)
VH: B6 VH with H32Y, L45P, L48M, R54N, D82E, Y94F, T97A, T102D, F103Y, R104G
VL: B1 VL with D17G, N31S, V51A, G55E, T56A, T72A
B22: g28v2-D46-9_CLK19 (antibody, V domains shown)
VH: B3 VH with D31G, I58V
VL: B6 VL with S14Y, F21I, F32Y, K39I, T51A, G65S, G66R, T69A, V83I
B23: g28v2-D38-7_CLK19 (antibody, V domains shown)
VH: B2 VH with D31G, R58T, F64Y, V70M, T78S, I107F
VL: B6 VL with F21I, S30N, F32Y, G65S, V83I, Y87F, T93A
B24: g28v2-D46-4_CLK19 (antibody, V domains shown)
VH: B16 VH with M34I, R54T
VL: B1 VL with T22S, S30N, V51T, A84G, E92D, F93T, G96P, E101D
B25: g28v2-D38-3_CLK19 (antibody, V domains shown)
VH: B6 VH with H32Y, H33F, L48M, R54H, G55F, G57A, D82E, T91W
VL: B6 VL with F21I, T22S, S30N, F32Y, A56T, G65S, V83I, A92D
B26: g28v2-D38-8_CLK19 (antibody, V domains shown)
VH: QVQLVQSGAEVKKPGASVKVSCKASGYSFSGYYMHWVRQAPGQGLEWMGWINPNHGGTNYAQKFQDRVTMTRDTSISTAYMELSRLRSDDTAVYFCARVDESWFGKKWTFDIWGQGTMVTVSS
VL: B1 VL with S30G, V51T, G55E, T72S, S76A, E92D, F93I, G96P, E101D
B27: g28v2-D38-10_CLK19 (antibody, V domains shown)
VH: B12 VH with V31G, M34I, K104W
VL: DIQMTQSPSSLSASVGDRVTITCQASQDIGNYLNWYHQRPGKAPKLLIYDASNLETGVPSRFSGSGSGPDSTFTISTLQPEDIGTYYCQQYDTFGPGTKVDIK
B28: g28v2-D46-14_CLK19 (antibody, V domains shown)
VH: B12 VH with Q1R, V31G, M34I, S55R, Y80S
VL: DIQLTQSPSSLSASVGGRVTITCQASQDIHNYLNWYQQKPGKAPKILIHDVSNLETGVPSRFSGSRSGTDFTFTISSLLPEDIGTYYCQQYEFFGPGTKVDIK

Numbering of substitutions follows the chain as printed.

This experiment deals with eOD-GT8 (monomeric ligand) (Human immunodeficiency virus 1, …).
For the molecule B1, the Kd amounted to 0.177 nM.

On to B2, for which binding was characterised by a dissociation constant (Kd) of 0.211 nM.

Molecule B3 registered a Kd of 0.303 nM.

B4 registered a Kd of 20.7 nM.

In turn, B5 showed a Kd of 0.19 nM.

In the case of B6, the Kd is 6.29 nM.

In turn, B7 yielded a Kd of 0.0422 nM.

B8 returned a Kd of 3710 nM.

B9: binding was characterised by a dissociation constant (Kd) of 0.183 nM.

B10 gave a Kd of 4.43 nM.

Regarding B11, the Kd is 0.344 nM.

As for B12, the Kd stood at 0.149 nM.

Take B13: the Kd came to 3.69 nM.

As for B14, the Kd was 1.35 nM.

B15 registered a Kd of 0.0455 nM.

Turning to B16, binding was characterised by a dissociation constant (Kd) of 0.338 nM.

Molecule B17 returned a Kd of 0.193 nM.

Molecule B18 registered a Kd of 5.38 nM.

Turning to B19, the Kd came to 10.8 nM.

Molecule B20 gave an equilibrium dissociation constant (Kd) of 19.7 nM.

The molecule B21 displayed a Kd of 57.3 nM.

B22 had a Kd of 0.0475 nM.

In turn, B23 displayed a Kd of 0.0876 nM.

B24 came in with a Kd of 0.106 nM.

Turning to B25, binding was put at a Kd of 105 nM.

The molecule B26 gave a Kd of 50.8 nM.

For the molecule B27, the Kd was determined as 0.0433 nM.

On to B28, for which binding was characterised by a dissociation constant (Kd) of 12 nM.
